Results from patent US12569569B2, “Nano-delivery system and therapeutic and diagnostic use thereof” (NANOCARRY THERAPEUTICS LTD., priority 2020, dated 2026).

Assay: ICP-MS quantification of Au and Pt in mice brains after IV cisplatin+insulin-GNPs
Assay type: in vivo, Male BALB/c mice
Conditions: 8 hours post-administration
Experimental: Male BALB/c mice aged 6-7 weeks were administered intravenously through the tail vein with 200 μl of cisplatin+insulin-GNPs (approximately 0.1 mg of cisplatin according to ICP-MS measurement of Pt concentration) (n=3), or with equivalent dose of free Cisplatin (100 μl, 1 mg/ml) (n=3). Mice were sacrificed 8 hours post-administration. The mice underwent perfusion using 20 ml saline to remove all the particles residing within the blood vessels.
After sacrifice and perfusion, mice brains were extracted and weighted followed by ICP-MS analysis to quantify the amounts of Au and Pt within the brain.

## cisplatin+insulin-GNPs: 20 nm GNPs with mPEG-SH 5 kDa, PEG 1 kDa conjugated to cisplatin, PEG 5 kDa conjugated to insulin (60:20:20)
IV 200 μl, after perfusion
  Au and Pt within the brain (ICP-MS): both gold and platin were found within the brains
IV
  Amount of Pt within the brain compared to equivalent dose of free cisplatin: significantly higher
